Results: publication doi:10.1101/2023.05.22.541748 (bioRxiv, 2023)

Target: ubiquitin (wild type, Q40Ub) (UniProt P0CG48 1-76)
Assay: NMR chemical shift perturbations of the conjugate against the free proteins

B1: Ubc13 C87K/K92T/K94Q (enzyme)
chain: MAGLPRRIIKETQRLLAEPVPGIKAEPDESNARYFHVVIAGPQDSPFEGGTFKLELFLPEEYPMAAPKVRFMTKIYHPNVDKLGRIKLDILTDQWSPALQIRTVLLSIQALLSAPNPDDPLANDVAEQWKTNEAQAIETARAWTRLYAMNNI
binding result: binds
